From PMC6607443, “Systematic identification of recognition motifs for the hub protein LC8” (Life Science Alliance, 2019)

Biological target: dynein light chain LC8 (UniProt P63167)
Assay: ITC; peptide (500 μM) injected into 25 μM LC8 in the cell; 25°C; 50 mM sodium phosphate, 50 mM NaCl, 1 mM sodium azide, 5 mM β-mercaptoethanol, pH 7.5; single-site model; averages of two to three experiments

Chain of dynein light chain LC8 (P63167 whole entry): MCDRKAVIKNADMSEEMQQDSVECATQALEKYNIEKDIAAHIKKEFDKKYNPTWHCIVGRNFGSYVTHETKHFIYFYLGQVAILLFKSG

Kd: 10 µM
stoichiometry N (peptide per LC8 chain): 1
Substance: HIV Tat-specific factor 1 (HTATSF1) peptide
